Results: patent publication US20190167815

Columns and labels:
[1] = system: SBS#75115 (synthetic); test: cell_activity; details: KRAB fusion mRNA, C9 line, isoform-specific RT-qPCR; microarray: only C9orf72 repressed
[2] = system: SBS#75114 (synthetic); test: cell_activity; details: KRAB fusion mRNA, C9 line, isoform-specific RT-qPCR

Work on “CACGCCCCGGCCCCGGCCCCGGCCCCTA (double strand) [C9orf72 reverse site, frame i]” yielded an activity [1] of over 70 % repression and an activity [2] of over 70 % repression.
